We go through eight molecules from patent publication US7208171B2, “Injectable and bioadhesive polymeric hydrogels as well as related methods of enzymatic preparation” (Northwestern University, priority 2002, dated 2007).

What is called kcat is the number of substrate molecules converted per active site and unit of time at saturation.

Non-standard residues stand in square brackets, D forms with d. No end group written: not given here. Dopa = N[C@@H](Cc1ccc(O)c(O)c1)C(=O)O

Series [1] concerns the target T1, guinea pig liver transglutaminase (guinea pig, UniProt P08587 2-690).
T1 sequence (looked up): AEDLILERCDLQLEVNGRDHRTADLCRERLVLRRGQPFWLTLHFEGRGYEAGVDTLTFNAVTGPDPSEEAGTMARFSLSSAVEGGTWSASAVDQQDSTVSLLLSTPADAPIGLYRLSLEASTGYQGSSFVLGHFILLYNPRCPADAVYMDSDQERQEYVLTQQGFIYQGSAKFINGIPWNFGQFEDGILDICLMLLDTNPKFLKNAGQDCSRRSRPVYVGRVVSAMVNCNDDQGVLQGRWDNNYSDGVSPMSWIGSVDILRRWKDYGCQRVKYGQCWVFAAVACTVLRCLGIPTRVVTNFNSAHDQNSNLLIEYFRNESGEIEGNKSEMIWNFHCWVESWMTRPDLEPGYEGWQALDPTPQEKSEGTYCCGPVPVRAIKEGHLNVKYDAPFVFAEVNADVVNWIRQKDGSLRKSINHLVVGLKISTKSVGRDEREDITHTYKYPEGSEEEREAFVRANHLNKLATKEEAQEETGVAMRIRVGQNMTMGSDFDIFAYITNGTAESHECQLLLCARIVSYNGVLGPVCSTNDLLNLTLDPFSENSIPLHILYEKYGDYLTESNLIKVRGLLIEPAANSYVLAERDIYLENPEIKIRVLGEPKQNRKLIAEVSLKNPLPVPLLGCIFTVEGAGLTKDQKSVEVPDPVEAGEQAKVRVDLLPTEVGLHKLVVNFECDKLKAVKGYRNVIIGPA
Kind of series: cell-based or functional assay.

Series [2] concerns the target T2, guinea pig liver transglutaminase (UniProt P08587).
T2 construct: Transglutaminase from guinea pig liver, Boc-L-Lys(Boc)-OH, and N-Boc-L-DOPA dicyclohexylammonium salt was purchased from Sigma Chemical Company; purchased Sigma Chemical Company (St. Louis, Mo.); host or cells: guinea pig liver (tissue-derived enzyme)
T2 sequence (P08587 1-690): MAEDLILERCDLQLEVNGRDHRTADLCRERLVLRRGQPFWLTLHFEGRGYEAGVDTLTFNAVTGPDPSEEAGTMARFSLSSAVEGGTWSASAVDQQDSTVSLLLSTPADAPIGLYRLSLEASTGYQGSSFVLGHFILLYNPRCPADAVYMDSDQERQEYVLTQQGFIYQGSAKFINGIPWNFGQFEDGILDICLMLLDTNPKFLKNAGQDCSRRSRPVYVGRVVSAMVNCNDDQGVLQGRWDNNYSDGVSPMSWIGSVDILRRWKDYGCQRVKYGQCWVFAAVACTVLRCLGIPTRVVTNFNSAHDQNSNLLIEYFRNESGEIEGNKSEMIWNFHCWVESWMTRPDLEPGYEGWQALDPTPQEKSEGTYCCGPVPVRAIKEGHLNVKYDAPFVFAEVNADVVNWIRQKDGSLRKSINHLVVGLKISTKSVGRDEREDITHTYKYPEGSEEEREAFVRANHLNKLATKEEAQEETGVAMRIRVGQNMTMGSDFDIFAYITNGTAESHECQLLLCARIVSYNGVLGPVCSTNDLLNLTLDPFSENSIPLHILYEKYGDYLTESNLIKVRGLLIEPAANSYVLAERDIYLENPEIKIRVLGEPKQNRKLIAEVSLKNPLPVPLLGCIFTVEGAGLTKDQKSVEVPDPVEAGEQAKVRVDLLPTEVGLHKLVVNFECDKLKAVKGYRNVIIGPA
Description: Substrate specificity: TGase-catalysed cross-linking of peptide with dansyl labeled substrate, RP-HPLC. It counts as biochemical. Conditions: peptide concentration 0.05–50 mM, enzyme 0.05 U/ml, reaction time 30 min. Here is the method: For acyl donor attention was focused on peptides containing two to about 5 contiguous glutaminyl (e.g., Gln residues), whereas for acyl acceptor a variety of residues were placed near or adjacent Lys. The peptides were assayed as TGase substrates by monitoring the rate of cross-linking reaction with a known dansyl labeled substrate. The use of fluorescently labeled compounds and RP-HPLC analysis with the aid of LC-ESI/MS, allowed for identification of products and comparison of the kinetic constants of the candidate peptides. The specificity (kcat/Km, app) values determined under identical experimental conditions reflect the relative specificity of the enzyme toward the substrates; peptides with higher specificities are better substrates for TGase enzyme, indicating the enzyme-catalyzed cross-linking reaction of that peptide will proceed more rapidly.
Substrate Specificity. […] All reaction products were characterized by LC-ESI/MS (Table 3) and quantitatively analyzed by RP-HPLC. Kinetic constants (Table 4a–b and FIG. 6) were calculated from two methods: fit of the initial rates versus substrate concentrations to the Michaelis-Menten equation using the SigmaPlot® 2000 program with Enzyme Kinetics Module (SPSS Inc., IL); and graphing of the kinetic data using the direct linear plot. […]

For another series, the target named is T3, Ac-KG-NH2.
T3 chain: KG

Another series deals with T4, DOPA-GQQQLG-NH2.
T4 chain: XGQQQLG

For the next series, the target named is T5, NH2-GQLKHLEQQEG-NH2.
T5 chain: GQLKHLEQQEG

For another series, the target named is T6, LKG-NH2.
T6 chain: LKG

A further series deals with T7, DOPA-LKG-NH2.
T7 chain: XLKG

For another series, the target named is T8, Ac-LKG-NH2.
T8 chain: LKG

The target in the next series is T9, Ac-FKG-NH2.
T9 chain: FKG

The next series addresses T10, DOPA-FKG-NH2.
T10 chain: XFKG

In another series the target is T11, Ac-GQQQLG-NH2.
T11 chain: GQQQLG

For a further series, the target named is T12, FKG-NH2.
T12 chain: FKG

In series [1], DOPA-LKG-NH2 (peptide) showed a fold increase in specificity against Ac-KG-NH2 of 100 fold and a fold increase in specificity against Ac-LKG-NH2 of 2.4 fold.

In series [1], DOPA-FKG-NH2 (peptide) displayed a fold increase in specificity against Ac-FKG-NH2 of 2.4 fold and a fold increase in specificity against Ac-KG-NH2 of 100 fold.

On to “DOPA-Lys-Gly-NH2 ([Dopa]-Lys-Gly-NH2; N-terminus assumed; SMILES NCCCC[C@H](NC(=O)[C@@H](N)Cc1ccc(O)c(O)c1)C(=O)NCC(N)=O) [Peptide 4]”, for which, in series [2], the cross-linking product detection result is “No cross-linking product was detected”.

Consider Phe-Lys-Gly-NH2 [FKG-NH2], for which the “fold increase in specificity against Ac-KG-NH2” value in [1] is ~5 fold.

For Leu-Lys-Gly-NH2 [LKG-NH2], the “fold increase in specificity against Ac-KG-NH2” value in series [1] is ~5 fold.

B1: guinea pig liver transglutaminase (protein)
chain: T1 sequence (looked up)
B1: the Km, app is 872 µM with Ac-KG-NH2; 367 µM with DOPA-GQQQLG-NH2; 593 µM with NH2-GQLKHLEQQEG-NH2; 609 µM with LKG-NH2; 19.5 µM in the series with DOPA-LKG-NH2; 56 µM in the series with Ac-LKG-NH2. The Km, app with Ac-FKG-NH2 was determined as 46.9 µM; in the series with DOPA-FKG-NH2, 17 µM; in the series with Ac-GQQQLG-NH2, 119 µM; with FKG-NH2 it was 498 µM. Moreover, the Vmax, app with Ac-KG-NH2 was 1.02 µM/min; with DOPA-GQQQLG-NH2, 7.8 mM/min; with NH2-GQLKHLEQQEG-NH2, 12.5 mM/min; with LKG-NH2 it was 1.64 µM/min; in the series with DOPA-LKG-NH2, 1.28 µM/min; with Ac-LKG-NH2, 1.5 µM/min. For the same molecule, the Vmax, app in the series with Ac-FKG-NH2 was 1.46 µM/min; in the series with DOPA-FKG-NH2 it was 1.25 µM/min; in the series with Ac-GQQQLG-NH2 it was 1.8 mM/min; with FKG-NH2, 1.7 µM/min. In addition, the turnover number (kcat) with Ac-KG-NH2 turned out to be 0.153 s⁻¹; in the series with DOPA-GQQQLG-NH2, 0.293 s⁻¹; with NH2-GQLKHLEQQEG-NH2, 0.468 s⁻¹; with LKG-NH2, 0.492 s⁻¹; in the series with DOPA-LKG-NH2, 0.383 s⁻¹; with Ac-LKG-NH2, 0.45 s⁻¹. Also, the kcat with Ac-FKG-NH2 came out at 0.438 s⁻¹; with DOPA-FKG-NH2 it was 0.375 s⁻¹; with Ac-GQQQLG-NH2, 0.0667 s⁻¹; with FKG-NH2 it was 0.51 s⁻¹. Also, the kcat/Km, app with Ac-KG-NH2 worked out at 177 M⁻¹ s⁻¹; in the series with DOPA-GQQQLG-NH2 it was 798 M⁻¹ s⁻¹; with NH2-GQLKHLEQQEG-NH2, 788 M⁻¹ s⁻¹; with LKG-NH2, 807 M⁻¹ s⁻¹; with DOPA-LKG-NH2, 19600 M⁻¹ s⁻¹; in the series with Ac-LKG-NH2, 8030 M⁻¹ s⁻¹. Also, the kcat/Km, app stood at 9330 M⁻¹ s⁻¹ in the series with Ac-FKG-NH2, 22100 M⁻¹ s⁻¹ with DOPA-FKG-NH2, 568 M⁻¹ s⁻¹ in the series with Ac-GQQQLG-NH2 and 1030 M⁻¹ s⁻¹ with FKG-NH2. Moreover, the “substrate properties (acyl donor)” value with DOPA-GQQQLG-NH2, with NH2-GQLKHLEQQEG-NH2 and with Ac-GQQQLG-NH2 was “all three designed Gln peptides exhibiting good substrate properties” in each case.

Regarding Ac-Leu-Lys-Gly-NH2 [Ac-LKG-NH2], the “fold increase in specificity against LKG-NH2” value in [1] is ~10 fold.

Turning to Ac-Phe-Lys-Gly-NH2 [Ac-FKG-NH2], the “fold increase in specificity against FKG-NH2” value in series [1] was ~10 fold.
